{"source": "patent US20150098945A1", "about": "(Daiichi Sankyo, published 2015)", "binders": {"B1": {"name": "anti-ROBO4 mouse monoclonal antibody MAb1 (antibody, mouse IgG1, V domains shown)", "VH": "EVQLVESGGGLVKPGGSLKLSCAASGFTFSTYAMSWVRQTPEKRLEWVATISNGGTYTYYPDSVKGRFTISRDNAENTLYLQMSSLRSEDTAMYFCARLIYYDYLDYWGHGTTLTVSS", "VL": "DAVMTQTPLSLPVSLGDQASISCRSSQSLENSNGNTYLNWYFQKPGQSPQLLIYRVSNRFSGVLDRFSGSGSGTDFTLKISRVEAEDFGVYFCLQVTHVPWTFGGGTKLEIKR", "notes": "Mouse IgG1 (gamma1), kappa light chain, purified from hybridoma supernatant; also called parent antibody MAb1"}}, "target": "T1, N-terminal FLAG-tagged human ROBO4 extracellular region/domain deletion variant hROBO4-341 (human, UniProt Q8WZ75 341-1007)", "T1 construct": "On transfected HEK293 cells; also called pCI-FLAG-hROBO4-341; pCI-hROBO4-341", "T1 sequence": "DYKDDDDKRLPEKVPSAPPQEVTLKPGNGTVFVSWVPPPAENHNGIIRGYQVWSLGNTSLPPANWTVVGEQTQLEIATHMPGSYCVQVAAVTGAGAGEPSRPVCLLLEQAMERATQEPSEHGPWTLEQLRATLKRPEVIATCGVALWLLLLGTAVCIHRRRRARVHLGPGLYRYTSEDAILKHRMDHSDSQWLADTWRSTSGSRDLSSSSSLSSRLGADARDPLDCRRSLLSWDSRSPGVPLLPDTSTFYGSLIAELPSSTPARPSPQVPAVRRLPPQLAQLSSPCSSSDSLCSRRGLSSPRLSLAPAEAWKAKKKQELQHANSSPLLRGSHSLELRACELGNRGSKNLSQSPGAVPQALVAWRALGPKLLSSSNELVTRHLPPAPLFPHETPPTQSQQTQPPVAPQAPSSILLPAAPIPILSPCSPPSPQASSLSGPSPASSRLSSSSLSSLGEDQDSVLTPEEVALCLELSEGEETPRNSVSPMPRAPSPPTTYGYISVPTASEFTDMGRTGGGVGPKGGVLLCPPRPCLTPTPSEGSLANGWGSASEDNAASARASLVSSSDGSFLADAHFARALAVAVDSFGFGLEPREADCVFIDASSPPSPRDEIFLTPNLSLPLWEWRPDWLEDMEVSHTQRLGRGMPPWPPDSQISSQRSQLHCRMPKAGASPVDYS", "assay": "flow cytometry, HEK293 cells transfected with pCI-FLAG-hROBO4-341, anti-mouse IgG FITC; control histogram IgG (Mouse IgG2a)", "protocol": "HEK293 cells were inoculated at a concentration of 1.5×10⁶ cells/dish to a 60-mm dish (manufactured by Corning Inc.) and cultured overnight in a DMEM medium containing 10% FBS at 37° C. under 5% CO₂ conditions. […] On the next day, the expression vector-transfected cells were treated with TrypLE Express (manufactured by Life Technologies Corp.), washed with PBS containing 5% FBS, and then suspended in PBS containing 5% FBS. The obtained cell suspension was used in flow cytometry analysis.\nEach cell suspension prepared in 4)-5-1 was centrifuged, and the supernatant was removed. Then, MAb1, a positive control Monoclonal ANTI-FLAG M2 antibody produced in mouse, or a negative control Mouse IgG2a was added at a concentration of 10 μg/mL to 2×10⁵ expression vector-transfected cells, and the resulting suspension was left standing at 4° C. for 1 hour. The cells were washed once with PBS containing 5% FBS. Then, Anti-Mouse IgG FITC conjugate diluted 1000-fold with PBS containing 5% FBS was added thereto, and the resulting suspension was left standing at 4° C. for 1 hour. […] Data was analyzed using Flowjo. The histogram of FITC fluorescence intensity was prepared. The antibody was determined to bind to a cell when the histogram of MAb1 was shifted to a stronger fluorescence intensity region compared with the histogram of the negative control Mouse IgG2a. […]", "data": [{"binder": "B1", "values": [{"measurement": "binding result", "value": "no binding (tested: 10 µg/mL)"}]}]}
